Series [1] deals with T1, TBPcore (UniProt P13393 61-240).
T1 sequence: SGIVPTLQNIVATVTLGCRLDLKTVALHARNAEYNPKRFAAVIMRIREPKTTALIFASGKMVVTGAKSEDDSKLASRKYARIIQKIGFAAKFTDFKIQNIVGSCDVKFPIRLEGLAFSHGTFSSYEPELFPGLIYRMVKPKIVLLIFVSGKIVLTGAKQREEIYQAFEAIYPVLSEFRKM
As to the kind of experiment: EMSA; 300 nM TBPcore, 50 ug/ml heparin; EMSA: 3 nM DNA, 300 nM TBPcore, 3 uM TFIIB, 4 mM Tris-HCl pH 8.0, 60 mM KCl, 5 mM MgCl2, 4% glycerol, 1 mM DTT, 100 ug/ml BSA, 0.1% Tween 20, 50 ug/ml heparin. The conditions noted are these: protein: recombinant; label: 5'-Cy5 on coding strand; blunt.

In series [2] the target is T2, TBPcore;TFIIB (Saccharomyces cerevisiae?;Saccharomyces …, UniProt P13393;P29055 61-240;1-345, |).
T2 sequence 1: T1 sequence
T2 sequence 2: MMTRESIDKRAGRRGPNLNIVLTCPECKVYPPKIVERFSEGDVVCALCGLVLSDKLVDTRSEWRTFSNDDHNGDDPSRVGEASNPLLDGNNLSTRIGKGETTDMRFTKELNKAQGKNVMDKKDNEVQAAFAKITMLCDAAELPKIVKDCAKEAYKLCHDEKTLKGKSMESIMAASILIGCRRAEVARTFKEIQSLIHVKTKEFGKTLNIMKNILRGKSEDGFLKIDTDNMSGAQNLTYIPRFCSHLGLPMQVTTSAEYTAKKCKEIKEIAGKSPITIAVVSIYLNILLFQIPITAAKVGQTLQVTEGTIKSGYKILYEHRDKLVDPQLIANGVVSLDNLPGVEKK
As to the kind of experiment: EMSA; 300 nM TBPcore, 3 uM TFIIB, 50 ug/ml heparin; EMSA: 3 nM DNA, 300 nM TBPcore, 3 uM TFIIB, 4 mM Tris-HCl pH 8.0, 60 mM KCl, 5 mM MgCl2, 4% glycerol, 1 mM DTT, 100 ug/ml BSA, 0.1% Tween 20, 50 ug/ml heparin. The conditions noted are these: protein: recombinant;recombinant; tags: ;; copies: 1;1; label: 5'-Cy5 on coding strand; blunt.

In series [3] the target is T1, TBPcore. Kind of series: EMSA; not impaired; EMSA: 3 nM DNA, 300 nM TBPcore, 3 uM TFIIB, 4 mM Tris-HCl pH 8.0, 60 mM KCl, 5 mM MgCl2, 4% glycerol, 1 mM DTT, 100 ug/ml BSA, 0.1% Tween 20, 50 ug/ml heparin. To be noted: protein: recombinant; label: 5'-Cy5 on coding strand; blunt. In general terms: Mobility shift assays separate free from complexed probe on a gel.
Series [4] addresses T2, TBPcore;TFIIB. Described as above. To be noted: protein: recombinant;recombinant; tags: ;; copies: 1;1; label: 5'-Cy5 on coding strand; blunt.
The target in series [5] is T1, TBPcore. As to the kind of experiment: EMSA; GAE region not sufficient for binding; EMSA: 3 nM DNA, 300 nM TBPcore, 3 uM TFIIB, 4 mM Tris-HCl pH 8.0, 60 mM KCl, 5 mM MgCl2, 4% glycerol, 1 mM DTT, 100 ug/ml BSA, 0.1% Tween 20, 50 ug/ml heparin. The conditions noted are these: protein: recombinant; label: 5'-Cy5 on coding strand; blunt.
Series [6] deals with T2, TBPcore;TFIIB. The series is described as above. The conditions noted are these: protein: recombinant;recombinant; tags: ;; copies: 1;1; label: 5'-Cy5 on coding strand; blunt.
Series [7] addresses T1, TBPcore. Kind of series: EMSA; not affected vs TMT1 (GAE); EMSA: 3 nM DNA, 300 nM TBPcore, 3 uM TFIIB, 4 mM Tris-HCl pH 8.0, 60 mM KCl, 5 mM MgCl2, 4% glycerol, 1 mM DTT, 100 ug/ml BSA, 0.1% Tween 20, 50 ug/ml heparin. To be noted: protein: recombinant; label: 5'-Cy5 on coding strand; blunt.
Series [8] concerns the target T2, TBPcore;TFIIB. Described as above. To be noted: protein: recombinant;recombinant; tags: ;; copies: 1;1; label: 5'-Cy5 on coding strand; blunt.

Positions count from the first letter of the chain named.

B1: HIS4 (TATA) (dsDNA)
DNA 1: ACAGTAGTATACTGTGTATATAATAGATATGGAACGTTAT
DNA 2: ATAACGTTCCATATCTATTATATACACAGTATACTACTGT
Consider B1, for which the binding result with TBPcore [1] and with TBPcore;TFIIB [2] was “binds” each time.

B2: TMT1 (TATA) (dsDNA)
DNA 1: ATTTTCATTTTTTATATAATATGTAACTAATTTAGT
DNA 2: ACTAAATTAGTTACATATTATATAAAAAATGAAAAT
As to B2, the binding result with TBPcore [3] and with TBPcore;TFIIB [4] was “binds” in each case.

B3: HIS4 (GAE) (dsDNA)
DNA 1: TAGTATACTGTGAAAGGAAAAGGAAGATATGGAACGTTAT
DNA 2: ATAACGTTCCATATCTTCCTTTTCCTTTCACAGTATACTA
For B3, the binding result with TBPcore [5] and in the series with TBPcore;TFIIB [6] was “no binding” throughout.

B4: TMT1 (GAE) (dsDNA)
DNA 1: ATTTTCATTTTTAAAGGAAAAGGAATGTAACTAATTTAGT
DNA 2: ACTAAATTAGTTACATTCCTTTTCCTTTAAAAATGAAAAT
For B4, the binding result with TBPcore [1] and with TBPcore;TFIIB [2] was “binds” each time.

B5: TMT1 (A-12) (dsDNA)
DNA 1: B4 DNA 1 with G16A, G17A, G22A, G23A
DNA 2: B4 DNA 2 with C18T, C19T, C24T, C25T
In the case of B5, the binding result in the series with TBPcore [7] and with TBPcore;TFIIB [8] was “binds” each time.

(Values after paper PMC3217976, “A Conserved GA Element in TATA-Less RNA Polymerase II Promoters”.)
